# Like-named read-outs stand apart in the source and are kept apart here. Non-standard residues stand in square brackets, D forms with d. Residues, ends and D or L forms follow the SMILES beside them. *: point of attachment. X1 = CC1(C)C(=CC=CC=CC=CC2=[N+](CCCCCC(=O)*)c3ccc4ccccc4c3C2(C)C)N(CCCCS(=O)(=O)[O-])c2ccc3ccccc3c21; Cha = N[C@@H](CC1CCCCC1)C(=O)O
# Protocol: ECGs were taken at baseline, 1 hr ± 15 min, and 44 hrs ± 6 h post-injection. Blood samples (including lever and kidney parameters) were sampled at baseline, 12 hrs ± 4 hrs, and 44 hrs ± 6 hrs post-injection. All laboratory analyses were performed by the Department of Biochemistry at Rigshospitalet. AE assessments were graded according to the National Cancer Institute “Common Terminology Criteria for Adverse Events (CTCAE)” version 5.0. There was no data monitoring committee in this trial.
# [1] = FG001 36 mg i.v., n = 4, CTCAE v5.0
compound,measurement,setting,value
"CC(C)C[C@H](NC(=O)[C@H](Cc1ccc(O)cc1)NC(=O)[C@@H](CCCNC(=N)N)NC(=O)[C@@H](CO)NC(=O)[C@H](Cc1ccccc1)NC(=O)[C@H](CC1CCCCC1)NC(=O)[C@H](CC(=O)O)NC(=O)[C@H](CCC(=O)O)NC(=O)[C@H](CCC(=O)O)NC(=O)CCCCC[N+]1=C(C=CC=CC=CC=C2N(CCCCS(=O)(=O)[O-])c3ccc4ccccc4c3C2(C)C)C(C)(C)c2c1ccc1ccccc21)C(=O)N[C@@H](Cc1c[nH]c2ccccc12)C(=O)N[C@@H](CO)C(=O)O [FG001, ICG-Glu-Glu-AE105] (X1-EED[Cha]F[dS][dR]YLWS-OH; N-terminus and C-terminus assumed)",TEAE Blood bilirubin increased: No. events,"FG001 36 mg i.v., N=4",4
same,TEAE Blood bilirubin increased: No. subjects (%),"FG001 36 mg i.v., N=4",4 (100.0%)
same,TEAE Blood creatinine increased: No. events,"FG001 36 mg i.v., N=4",1
same,TEAE Blood creatinine increased: No. subjects (%),"FG001 36 mg i.v., N=4",1 (25.0%)
same,TEAE Dysgeusia: No. events,"FG001 36 mg i.v., N=4",0
same,TEAE Dysgeusia: No. subjects (%),"FG001 36 mg i.v., N=4",0 (0.0%)
same,TEAE GGT increased: No. events,"FG001 36 mg i.v., N=4",1
same,TEAE GGT increased: No. subjects (%),"FG001 36 mg i.v., N=4",1 (25.0%)
same,TEAE Hypalbuminaemia: No. events,"FG001 36 mg i.v., N=4",1
same,TEAE Hypalbuminaemia: No. subjects (%),"FG001 36 mg i.v., N=4",1 (25.0%)
same,TEAE Hyperglycaemia: No. events,"FG001 36 mg i.v., N=4",1
same,TEAE Hyperglycaemia: No. subjects (%),"FG001 36 mg i.v., N=4",1 (25.0%)
same,TEAE Hypertension: No. events,"FG001 36 mg i.v., N=4",1
same,TEAE Hypertension: No. subjects (%),"FG001 36 mg i.v., N=4",1 (25.0%)
same,TEAE Hyponatraemia: No. events,"FG001 36 mg i.v., N=4",0
same,TEAE Hyponatraemia: No. subjects (%),"FG001 36 mg i.v., N=4",0 (0.0%)
same,TEAE Hypotension: No. events,"FG001 36 mg i.v., N=4",0
same,TEAE Hypotension: No. subjects (%),"FG001 36 mg i.v., N=4",0 (0.0%)
same,TEAE Hypothermia: No. events,"FG001 36 mg i.v., N=4",2
same,TEAE Hypothermia: No. subjects (%),"FG001 36 mg i.v., N=4",1 (25.0%)
same,TEAE Pneumonia: No. events,"FG001 36 mg i.v., N=4",0
same,TEAE Pneumonia: No. subjects (%),"FG001 36 mg i.v., N=4",0 (0.0%)
same,TEAE SOC General disorders and administration site conditions: No. events,"FG001 36 mg i.v., N=4",2
same,TEAE SOC General disorders and administration site conditions: No. subjects (%),"FG001 36 mg i.v., N=4",1 (25.0%)
same,TEAE SOC Infections and infestations: No. events,"FG001 36 mg i.v., N=4",0
same,TEAE SOC Infections and infestations: No. subjects (%),"FG001 36 mg i.v., N=4",0 (0.0%)
same,TEAE SOC Investigations: No. events,"FG001 36 mg i.v., N=4",9
same,TEAE SOC Investigations: No. subjects (%),"FG001 36 mg i.v., N=4",4 (100.0%)
same,TEAE SOC Metabolism and nutrition disorders: No. events,"FG001 36 mg i.v., N=4",2
same,TEAE SOC Metabolism and nutrition disorders: No. subjects (%),"FG001 36 mg i.v., N=4",1 (25.0%)
same,TEAE SOC Nervous system disorders: No. events,"FG001 36 mg i.v., N=4",0
same,TEAE SOC Nervous system disorders: No. subjects (%),"FG001 36 mg i.v., N=4",0 (0.0%)
same,TEAE SOC Vascular disorders: No. events,"FG001 36 mg i.v., N=4",1
same,TEAE SOC Vascular disorders: No. subjects (%),"FG001 36 mg i.v., N=4",1 (25.0%)
same,FG001 related TEAEs: No. events,"FG001 36 mg i.v., n = 4",0
same,FG001 related TEAEs: No. patients (%),"FG001 36 mg i.v., n = 4",0 (0%)
same,SAEs: No. events,"FG001 36 mg i.v., n = 4",0
same,SAEs: No. patients (%),"FG001 36 mg i.v., n = 4",0 (0%)
same,TEAE: No. events,"FG001 36 mg i.v., n = 4",14
same,TEAE: No. patients (%),"FG001 36 mg i.v., n = 4",4 (100%)
same,TEAE Mild (Grade 1): No. events,[1],8
same,TEAE Mild (Grade 1): No. patients (%),[1],1 (25.0%)
same,TEAE Moderate (Grade 2): No. events,[1],3
same,TEAE Moderate (Grade 2): No. patients (%),[1],2 (50.0%)
same,TEAE Severe (Grade 3): No. events,[1],3
same,TEAE Severe (Grade 3): No. patients (%),[1],1 (25.0%)
same,TEAE Mild (Grade 1): No. events,"all doses, N = 17, CTCAE v5.0",24
same,TEAE Mild (Grade 1): No. patients (%),"all doses, N = 17, CTCAE v5.0",7 (41.2%)
same,TEAE Moderate (Grade 2): No. patients (%),"all doses, N = 17, CTCAE v5.0",8 (47.1%)
same,TEAE Severe (Grade 3): No. patients (%),"all doses, N = 17, CTCAE v5.0",1 (5.9%)
same,FG001 related TEAEs: No. events,"all doses, N=17",0
same,FG001 related TEAEs: No. patients (%),"all doses, N=17",0 (0%)
same,SAEs: No. events,"all doses, N=17",0
same,SAEs: No. patients (%),"all doses, N=17",0 (0%)
same,TEAE ALT increased: No. events,"all doses, N=17",1
same,TEAE ALT increased: No. subjects (%),"all doses, N=17",1 (5.9%)
same,TEAE AST increased: No. events,"all doses, N=17",3
same,TEAE AST increased: No. subjects (%),"all doses, N=17",3 (17.6%)
same,TEAE Blood ALP increased: No. events,"all doses, N=17",1
same,TEAE Blood ALP increased: No. subjects (%),"all doses, N=17",1 (5.9%)
same,TEAE Blood bilirubin increased: No. events,"all doses, N=17",7
same,TEAE Blood bilirubin increased: No. subjects (%),"all doses, N=17",7 (41.2%)
same,TEAE Blood creatinine increased: No. events,"all doses, N=17",2
same,TEAE Blood creatinine increased: No. subjects (%),"all doses, N=17",2 (11.8%)
same,TEAE Dysgeusia: No. events,"all doses, N=17",1
same,TEAE GGT increased: No. events,"all doses, N=17",1
same,TEAE GGT increased: No. subjects (%),"all doses, N=17",1 (5.9%)
same,TEAE Hypalbuminaemia: No. events,"all doses, N=17",10
same,TEAE Hypalbuminaemia: No. subjects (%),"all doses, N=17",10 (58.8%)
same,TEAE Hyperglycaemia: No. events,"all doses, N=17",2
same,TEAE Hyperglycaemia: No. subjects (%),"all doses, N=17",2 (11.8%)
same,TEAE Hypertension: No. events,"all doses, N=17",2
same,TEAE Hypertension: No. subjects (%),"all doses, N=17",2 (11.8%)
same,TEAE Hyponatraemia: No. events,"all doses, N=17",1
same,TEAE Hyponatraemia: No. subjects (%),"all doses, N=17",1 (5.9%)
same,TEAE Hypotension: No. events,"all doses, N=17",1
same,TEAE Hypotension: No. subjects (%),"all doses, N=17",1 (5.9%)
same,TEAE Hypothermia: No. events,"all doses, N=17",3
same,TEAE Pneumonia: No. events,"all doses, N=17",1
same,TEAE Pneumonia: No. subjects (%),"all doses, N=17",1 (5.9%)
same,TEAE SOC General disorders and administration site conditions: No. events,"all doses, N=17",3
same,TEAE SOC Infections and infestations: No. events,"all doses, N=17",1
same,TEAE SOC Investigations: No. events,"all doses, N=17",15
same,TEAE SOC Investigations: No. subjects (%),"all doses, N=17",9 (52.9%)
same,TEAE SOC Metabolism and nutrition disorders: No. events,"all doses, N=17",13
same,TEAE SOC Metabolism and nutrition disorders: No. subjects (%),"all doses, N=17",10 (58.8%)
same,TEAE SOC Nervous system disorders: No. events,"all doses, N=17",1
same,TEAE SOC Vascular disorders: No. events,"all doses, N=17",3
same,TEAE SOC Vascular disorders: No. subjects (%),"all doses, N=17",3 (17.6%)
same,TEAE: No. events,"all doses, N=17",36
same,TEAE: No. patients (%),"all doses, N=17",16 (94.1%)
same,"TEAE Alanine aminotransferase increased, Grade 3: No. events","all doses, Table S1",1
same,"TEAE Alkaline phosphatase increased, Grade 1: No. events","all doses, Table S1",1
same,"TEAE Aspartate aminotransferase increased, Grade 1: No. events","all doses, Table S1",2
same,"TEAE Aspartate aminotransferase increased, Grade 3: No. events","all doses, Table S1",1
same,"TEAE Blood bilirubin increased, Grade 1: No. events","all doses, Table S1",5
same,"TEAE Blood bilirubin increased, Grade 2: No. events","all doses, Table S1",2
same,"TEAE Creatinine increased, Grade 1: No. events","all doses, Table S1",2
same,"TEAE Dysgeusia (salty taste), Grade 1: No. events","all doses, Table S1",1
same,"TEAE GGT increased, Grade 3: No. events","all doses, Table S1",1
same,"TEAE Hyperglycemia, Grade 1: No. events","all doses, Table S1",2
same,"TEAE Hypertension, Grade 2: No. events","all doses, Table S1",2
same,"TEAE Hypoalbuminemia, Grade 1: No. events","all doses, Table S1",6
same,"TEAE Hypoalbuminemia, Grade 2: No. events","all doses, Table S1",4
same,"TEAE Hyponatremia, Grade 1: No. events","all doses, Table S1",1
same,"TEAE Hypotension, Grade 1: No. events","all doses, Table S1",1
same,"TEAE Hypothermia, Grade 1: No. events","all doses, Table S1",3
same,"TEAE Pneumonia, Grade 2: No. events","all doses, Table S1",1
same,Findings related to FG001 administration at physical examinations,in vivo,No abnormal findings

# From publication PMC11667226 (Theranostics, 2025)
